# Reference: the DeepSol protein solubility set
# Assay: soluble on expression in E. coli; label from the status in PepcDB or PDB records
row,Sequence,soluble on expression in E. coli
1,MGSDKIHHHHHHMASPEYEEYPSADGVMDDATLKDAEIRDWNWAVLPKGSVSTRFAAPSGSLAMVAMGKPQNPRVVLVPGATGSKEDFAVMMPELAEAGFYVLSYDLAGQYESAGAGPENLVPPRRHYDYELFVNDFVAVLESGGVPAHVVGYSFAAIVAQIAYSKRPELFRSFTLLSCPPLTGQCFRGISRFGRFTGLANGRVGAALMIWGIRRNVNKVSPNRLRFVRNRFRFTRRQSVRDIYGLMKNVPDLREHLAAATVPKFVAVGEHDLWPLHLHRQFAQSIGARISVYRGGHSPSETSPHQFGRDLLAMYAEGG,not soluble
2,MPNPRRIVFGDVHGHFDALTALFEAIAPNERDGVYFVGDLIDRGPESAKVVDFVMENKYHCLLGNHEQMMLDAVGGFNFSPQLLHAWIYSGGKSTLESYEHQIPQSHVDWMRNLPLYLDLGDVWLVHAGVDPRLPIEEQGEAQFCWIRDEFHRYPYPYFANKLIITGHTITFTFANVEPGKLVSGPGWLDIDTGAYHPKSGWLTALELNNQEVYQAHIFTNEVRRLPLEDAVVPLPPQNLHRLEHHHHHH,not soluble
3,MDYNKTAKDILKLLGGEKNVMSAAHCATRLRLVLKNEKEARTKEIEKLDGVKGVFSSSGQYQIIIGQGSVNKVYKAFVEGTGISESSLSDTKKAAMKNM,not soluble
4,MSLYLEKYYYEKNIQEEFFKFLYSMTGKKEEIVVICIGDPVFEGNILAPLVGTLLHERNIPNVYGTLKEPVYEINIKEIYNKILKKYDNPYIILVASSFPVDFHDEREVIVLKNDPYEIQTASGSLKLGNASFIVVFDLEDSYCKVNFIEKLGIRKIYKYSEAIFKTLYYILHNKNYVKEGHHHHHH,soluble
5,MMEVRINKFLSEAGVASRRKAEKLILEGRVKVNGEVVRSLGVKVNPEVDIVEVDGKPVKPQRKRYIILNKPCCYLTQLGRSPDGRKTIEELIKDIPERVFPVGRLDYNTEGLLILTNDGELANRILHPRYKLPKVYLALVEGKVDQKTLKRMKQGIELEDGFAKPDNIRIVRYEGKNTLLEITFHEGRKHLVKRFLGAFGHKVKRLKRIAIGPIKLGKLSPGKWRELNQGELAQLFKAVGLKYVPRKRRLEHHHHHH,soluble
6,MALAHVSRRVISNQIRCFAAANQETSLVHVEKQFEAIEPEKRDKDAFMAAIATFKEKRGRTHVEFINTALKYVKEYGVHKDIDTYKGLLEVFPKGKMIPQTVFQKVFLHYPQQQNCAVKVLDEMEWHGVQPDKEIHDIVVNAFGEWNFATKKVKRMLYWMPKLKHSNKYLDRRHVEGKSLSPSELAGIALKMMSRDAASSISLLKLSDSSDPQQKWLATSQSPMQQILISELRKGDEVFVDAAKVYLQDRVIPFITLTGNTKLEPLNEFKNEDMDEDYTNWYADWQKQRGEAKRSIHEQDHETIFAMGAMYKDDNATAIRWIDNLQKTNPNMENLRFRVRLEGNPIISRK,not soluble
7,MPLDGEYEPSPTQWVREQVERYESSGGTEGTTLMDTGLPVIVLTTRGARSGKLRKTPLMRVEHEGRYAVVASLGGAPKHPVWYFNVKADPRVELQDGPVKQDMTAREVTGAEKARWWERAVAAYPSYADYQKKTEREIPVFVLEPSHAG,not soluble
8,SLFKVGKVSYLNTLPLFYSLEGFEVVEGVPSELVEKLRRGEIHAGIVSSVEYFFNPQDYFILSGISISSRGSVCSVKLFSNEPMEKIREVNITKASLTSRELLFYLFEKKFGFVPKESEEAQAKLLIGDEAMEQKGYKFVYDLGEEWFKLHGLPFVFALFLVKRDADISKAKFLKKEIKKSVKNFFEEGIKNIKNKEYFKNCLDYSLGGEHIKSLINFYAYLSRKFKKQVPKLKFVL,soluble
9,MEFNLHAVSSEEKERDFDVVIVGAGAAGFSAAVYAARSGFSVAILDKAVAGGLTAEAPLVENYLGFKSIVGSELAKLFADHAANYAKIREGVEVRSIKKTQGGFDIETNDDTYHAKYVIITTGTTHKHLGVKGESEYFGKGTSYCSTCDGYLFKGKRVVTIGGGNSGAIAAISMSEYVKNVTIIEYMPKYMCENAYVQEIKKRNIPYIMNAQVTEIVGDGKKVTGVKYKDRTTGEEKLIETDGVFIYVGLIPQTSFLKDSGVKLDERGYIVVDSRQRTSVPGVYAAGDVTSGNFAQIASAVGDGCKAALSLYSDSISKK,soluble
10,MGSDKIHHHHHHMTWDQSPLRGGEPIVSVQSPFEAIERGPKMEMRDIDFLIIGATKSATTWLQQSLQQDPGIFMPDPELHYFSRYYERGDEWYLEHFAGQEHRRLRGEKSNSYMDVPEAAERIKEKLPEARLIAHVRNPVDRAYSDYCMLYRRAEVGRDIAQYLDPRQGAGGRFLNGGLYYQQLQGYLDRFPAEQILVLLYEDLKIDARAQLARVRGFLGLEADVPLKPLAKKVKDKSEPVVNPTLRRLLRPLKPVAAPFRQNTGFKKLRSLIAGELQYAPLSHDLRARMTDYFAPETEKLGALVGRDLTDWLRNRSPEK,not soluble
11,MSLKLIGIVGSNADSSYNRLLLQYIGKEFYKMFDLEILEIKDIPMFNQSKDQTNSVLIQNMNRKILQADGVIIATPEHNHTIPAGLKSVLEWLSFKIHPLENKPVMIVGCSYYDQGTSRAQLHLRQILDAPGVNAIVMPGNEFLLGKAKEAFDENGNLIAEGTRQFLESTLQKFVEFIDVISKLEGAKPKDLPEDLHAKGTIETTIEGVDMAADDWVEQAAEAVQAVEGDTYVKLDRGILTVDQLNYFLKSMPMELTYADSNNQFLYYNKKMAAEEMFAKRQPGQVGNPLANCHPPKALKNVEWVIQQLRSGKTDAIRVHVPMHGPDTYVVHNYQAMYDDNGNYAGINEYILDFKPIVDWYLKQTGQELVGGKNVDAVSGASKKEAPETADSVSSASVHEEESATEKPTVDSVSSASIKEEGHHHHHH,soluble
12,MSLTKMVIKGGTVYDPLNGIDGEVMDIFIKDGKIVENLSDGELKDAKILDVKGKVVMPGGVDSHTHVAGPKVNTGRVMCPEDHYKSPLKKTHNTHCGSGEIVPSTYAQGYKYSSMGYTTLFEAAVPPMLARHTHEEFKVMPIVDKAGYLLLGSNWFVMKYLKEGNVEKAAAYVAWALETTKTFGIKLVNPAGVESWAWGKNVHSLEEENIHFGISSGEVIRGLGAVNEMLGLPMSIHLHANNLGHPGNWEFTIDTMDVAKNIKPAVNKQGYDNGVKTKYSHEREQSLYMTHMQFHSFGGTSWKDFESKAEDISNYVNKSDHVVMDSGSVAFGKAICMTGDGPGLYDLAVMNGQKWANVDVELECGSGVVPFVYSMKNKVHSVQWAMGIELLLLTDPRKVIMTTDNPNAGPFTKYPQLITWLMSKKAREDTMKLCHKWAGERSGLAGNDKELSLYDLATVTRATPAKAIGMGHRKGHLSPGADADITVYDISPDYNSSDYAAIEKAFTTALFTIKDGEVITKDGRIIETPKGRTYYVDAKFNEEIQKEIIADVQDWFRRYYSIGFSNYPVPDLYLTKPTPLNINVREGHHHHHH,not soluble
13,SLEKLEFEDEAVEDSESGVYMRFMRSHKCYDIVPTSSKLVVFDTTLQVKKAFFALVANGVRAAPLWESKKQSFVGMLTITDFINILHRYYKSPMVQIYELEEHKIETWRELYLQETFKPLVNISPDASLFDAVYSLIKNKIHRLPVIDPISGNALYILTHKRILKFLQLFMSDMPKPAFMKQNLDELGIGTYHNIAFIHPDTPIIKALNIFVERRISALPVVDESGKVVDIYSKFDVINLAAEKTYNNLDITVTQALQHRSQYFEGVVKCNKLEILETIVDRIVRAEVHRLVVVNEADSIVGIISLSDILQALILTPAGAKQKETETE,soluble
14,MNFDVVIIGGGLAGLTCGIALQKQGKQCAIINNGQAAIDFSSGSMDLLSCLPSGQKVHVFCEAFSELSQQAPEHPYCLLGQHQVVAKVQQFEQFMQELGLVGSHKQNHLRVTPLGGLRHTWLSPKSVPVIAENEHFPYRQIAILGIEGYHDFQPQILVDNLKQNAAFSHCDFSIGYLNIPELDYLRQNAREFRSVNIAQLLEHKLAFEDLVQEIKQAAGNAQAVFLLACFGLDDQRFFDSLKQATALALFELPTLPPSLIGIRQYRTLRDQFEKLGGLLLNGDRAVRAEFDGDRVARIFTTLHQEESINAAHFVLASGSFFSNGLVAEFERVKEPIFDLDIIGNKAFINSERVSWTDKRFAAAQPYQSAGVAINHHCQVYKNGHLIPNLYAIGNVIGGFWGIEQGCASGVSVVTALTVAEWVGGTKLEHHHHHH,not soluble
15,MANRSHHNAGHRAMNALRKSGQKHSSESQLGSSEIGTTRHVYDVCDCLDTLAKLPDDSVQLIICDPPYNIMLADWDDHMDYIGWAKRWLAEAERVLSPTGSIAIFGGLQYQGEAGSGDLISIISHMRQNSKMLLANLIIWNYPNGMSAQRFFANRHEEIAWFAKTKKYFFDLDAVREPYDEETKAAYMKDKRLNPESVEKGRNPTNVWRMSRLNGNSLERVGHPTQKPAAVIERLVRALSHPGSTVLDFFAGSGVTARVAIQEGRNSICTDAAPVFKEYYQKQLTFLQDDGLIDKARSYEIVEGAANFGAALQRGDVAS,soluble
16,MRKRLITVKNLFEYVQENELVIQADMIITPGAKDIIRDKGIGVKYEKCCCESESKMKNEIKKDCQNFEKKVIDIITKEFKITDSETVQKILSKLKELL,not soluble
17,GAKQLSTARKFKMITGKDLFQQQKAMDTELKKEDGEITDLMEFVQYGLYLALFQDNIVKAKSDFSDFRSSFEFDTDGKGLKELVELWQKEI,soluble
18,MGSDKIHHHHHHTVPTFYLFGLLIMHNAAQHNYVISLTTEQKRRKHITEEFGKQNIPFEFFDAITPDIIEETAKKFNITLDRSPKAKLSDGEIGCALSHIVLWDLALENNLNYINIFEDDIHLGENAKELLEIDYISDDIHVLKLEANGKMFFKQPKSVKCDRNVYPMTVKQSGCAGYTVTAKGAKYLLELVKNKPLDVAVDSLVFEDFLHFKDYKIVQLSPGICVQDFVLHPDNPFESSLQEGRDRVHGNQRKSSILEKIKNEFGRVKIKMFGKQVPFK,not soluble
19,RMNLKEAAKKAENKSDFVNHVLPHYCNIMFGLIETRSAFLHEKSNFFEGFLTKEGLINEDRFAPMFGIYGMAEAVDILMEKEGIEAKYGHDEIANQLGHAISKQLSEIVDATDVKYGYHGKALLHAQGGISLDIDVTPGVRIPYGTEPDPVSYVQATVGHHQYYTSGISDILTIDETVKSNPEAMFNLAKGALQLGYREFTANVASNDLVRITGYMVKLSDIAKYDAEGSRTNTTFL,not soluble
20,MAHHHHHHAYLPPNMAERLQMSSSSTEPTTTSSMLPAPHSSANMRHIEGLVVVPGVVKVSRSDVASQYTMPHTNNAPLLFSEPEHRAVDNSSGSNDAQLEPKDPHLGLMPHCLSCTLLTSAGAQEPDDVYGRSMPSSSAVGAVTTELECAVVPTLHASFTPGVSTSIMPAPTEAHSACGSRPLQQPRWGGNYDSGSQCVSFRGADRSNNVSGCGLRLVGDDVEWLQGSFEDSASSPREEVQLSWGHLQRQPCAGKSSAARAVPPALHDVREGTGGEKVLAAHHRFERAVQPQTQRQGVFPSADQENCQAAAMLWAAQQMAVFD,soluble
21,MATQHPIGKKTACVVGGTGFVASLLVKLLLQKGYAVNTTVRDPDNQKKVSHLLELQELGDLKIFRADLTDELSFEAPIAGCDFVFHVATPVHFASEDPENDMIKPAIQGVVNVMKACTRAKSVKRVILTSSAAAVTINQLDGTGLVVDEKNWTDIEFLTSAKPPTWGYPASKTLAEKAAWKFAEENNIDLITVIPTLMAGSSLTSDVPSSIGLAMSLITGNEFLINGMKGMQMLSGSVSIAHVEDVCRAHIFVAEKESASGRYICCAANTSVPELAKFLSKRYPQYKVPTDFGDFPPKSKLIISSEKLVKEGFSFKYGIEEIYDESVEYFKAKGLLQN,soluble
